The results in this text go back to patent publication US20190153113A1, “CD39 VASCULAR ISOFORM TARGETING AGENTS” (INNATE PHARMA, priority 2015, published 2019).

The target in data set [1] is T1, CD39 (Homo sapiens, UniProt P49961).
T1 construct: cells that endogenously express CD39 at their surface, e.g. regulatory T (TReg) cells, B cells, cancer cells, lymphoma cells (e.g. Ramos cells); endogenous in cells; host or cells: Ramos human lymphoma cells
T1 sequence (P49961 1-510): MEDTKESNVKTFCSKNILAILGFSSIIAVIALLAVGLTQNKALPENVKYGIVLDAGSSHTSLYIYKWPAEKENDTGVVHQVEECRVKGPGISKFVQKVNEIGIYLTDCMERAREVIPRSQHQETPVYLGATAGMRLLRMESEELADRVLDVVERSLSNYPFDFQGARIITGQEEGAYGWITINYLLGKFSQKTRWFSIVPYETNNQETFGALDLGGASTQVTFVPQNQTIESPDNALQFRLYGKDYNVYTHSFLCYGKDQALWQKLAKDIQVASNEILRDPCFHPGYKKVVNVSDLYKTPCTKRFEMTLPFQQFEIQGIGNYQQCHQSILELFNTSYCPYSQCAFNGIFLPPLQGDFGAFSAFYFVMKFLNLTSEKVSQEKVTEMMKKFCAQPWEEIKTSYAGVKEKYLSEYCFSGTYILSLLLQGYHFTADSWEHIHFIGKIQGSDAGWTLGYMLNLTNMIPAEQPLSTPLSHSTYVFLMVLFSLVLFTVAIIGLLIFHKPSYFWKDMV
In words: Inhibition of CD39 enzymatic activity in Ramos cells, AMP production by Maldi TOF mass spectrometry. Type of data set: cell-based. The method, then: The inhibition of CD39 enzymatic activity by antibodies was evaluated by Maldi TOF mass spectrometry (production of AMP). This assay represents an assay that is relatively insensitive to down-modulation of CD39 expression. […] After washes, cells were incubated with anti-CD39 antibodies, isotype control, or ARL and 50 μM ATP for 30 minutes at 4° C. in PBS. AMP generated is quantified in supernatants by Maldi TOP.
The inhibition of CD39 enzymatic activity by antibodies was evaluated by Maldi TOF mass spectrometry (production of AMP). Briefly, 10^5 Ramos human lymphoma cells were incubated overnight at 37° C. with anti-CD39 antibodies or a chemical CD39 inhibitor (ARL 100 μM). After washes, cells were incubated with anti-CD39 antibodies, isotype control, or ARL and 50 μM ATP for 30 minutes at 4° C. in PBS. AMP generated is quantified in supernatants by Maldi TOP. Antibodies were used at 33 nM and ARL at […].

The target of data set [2] is T2, Recombinant human CD39-L3 (NTPDase3, ENTPD3) (human, UniProt O75355 44-485, limits assumed).
T2 construct: Coated in ELISA
T2 sequence: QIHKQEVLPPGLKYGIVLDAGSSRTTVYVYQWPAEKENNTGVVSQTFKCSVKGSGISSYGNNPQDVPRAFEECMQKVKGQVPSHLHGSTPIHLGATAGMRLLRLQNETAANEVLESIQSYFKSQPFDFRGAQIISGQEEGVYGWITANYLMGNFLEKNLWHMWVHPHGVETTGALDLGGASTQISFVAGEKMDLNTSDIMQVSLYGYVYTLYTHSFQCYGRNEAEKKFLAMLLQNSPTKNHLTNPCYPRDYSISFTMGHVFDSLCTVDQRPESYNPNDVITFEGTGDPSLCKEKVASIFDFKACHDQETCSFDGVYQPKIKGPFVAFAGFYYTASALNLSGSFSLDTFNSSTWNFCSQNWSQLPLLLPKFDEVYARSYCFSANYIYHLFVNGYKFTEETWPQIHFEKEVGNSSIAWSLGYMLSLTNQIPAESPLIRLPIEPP
In words: ELISA on coated RechuCD39-L3, OD 450 nm [top panel CHS2-I-391]. As for the experimental part:
Wells were washed in TBS Tween 20, and further saturated 2H at RT in TBS Blocking buffer. Dose range concentration of primary antibody was incubated in TBS blocking buffer for 2h at RT. Wells were washed in TBS Tween 20. […] Optical density was measured on Enspire at OD=450.
(In general: ELISA stands for enzyme-linked immunosorbent assay.)

The target in data set [3] is T3, CD39 mutant 19 (R138A, M139A, E142K) (human, UniProt P49961 1-510).
T3 construct: Transfected in HEK293T cells
T3 chain: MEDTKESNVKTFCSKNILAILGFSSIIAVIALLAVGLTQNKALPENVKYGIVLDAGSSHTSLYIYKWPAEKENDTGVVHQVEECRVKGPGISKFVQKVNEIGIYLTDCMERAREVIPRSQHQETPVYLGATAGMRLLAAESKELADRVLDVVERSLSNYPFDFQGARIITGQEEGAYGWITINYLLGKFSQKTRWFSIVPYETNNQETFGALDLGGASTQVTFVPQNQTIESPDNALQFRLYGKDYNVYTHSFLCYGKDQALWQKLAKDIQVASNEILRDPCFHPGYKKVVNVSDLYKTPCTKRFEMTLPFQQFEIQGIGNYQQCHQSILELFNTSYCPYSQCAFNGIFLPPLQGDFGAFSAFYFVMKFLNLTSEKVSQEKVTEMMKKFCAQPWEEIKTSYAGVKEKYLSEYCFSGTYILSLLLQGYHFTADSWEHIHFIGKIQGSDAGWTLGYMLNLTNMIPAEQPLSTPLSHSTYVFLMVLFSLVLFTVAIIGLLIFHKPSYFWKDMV
Kind of data set: flow cytometry, HEK293T cells transfected with mutant 19.

B1: I-392: anti-CD39 antibody, VH SEQ ID NO: 8 and VL SEQ ID NO: 9, chimeric human IgG1 with N297Q mutation (antibody, V domains shown)
VH: QIQLVQSGPEVKKPRETVKISCKASGYTFTHYGMNWVKQAPGKGLKWMGWINTYTGEPTYADDFKGRFAFSLEASASTAYLQINNLKNEDTATYFCARRRYEGNYVFYYFDYWGQGTTLTVSS
VL: DIQMTQSPASLSASVGETVTITCRASENIYSYFSWYQQKQGKSPQLLVYTAKTLAEGVPSRFSGSGSGTQFSLKINSLQPEDFGSYYCQHHYVTPYTFGGGTKLEIK
In the case of B1, the maximum inhibition achieved in data set [1] (Ramos cells, 50 μM ATP) was 93.4%. Besides, the “blocking CD39 enzymatic activity” value in data set [1] (Ramos cells, Example 6) is reported as “very potent at blocking CD39 enzymatic activity”. In data set [1] (read-out: EC50 (inhibition of 50% of the enzymatic activity of CD39), 100,000 Ramos cells, 50 μM ATP, n=3), the EC50 came out at 1.2 nM.

B2: Antibody I-391, Fc silent recombinant chimeric human IgG1 with heavy chain N297Q mutation (antibody, V domains shown)
VH: QIQLVQSGPELKKPGETVKISCKASGYTFRNYGMNWVKQAPGKGLKWMGWINTYTGEPTYADDFKGRFAFSLATSASTAYLQISNLKNEDTATYFCARKAYYGSNYYFDYWGQGTTLTVSS
VL: DIVMTQSHKFMSTSVGDRVSITCKASQDVSTAVAWYQQKPGQSPKLLIYSASYRYTGVPDRFTGSGSGTDFTFTISTVQAEDLAVYYCQQHYTTPPYTFGGGTKLEIKR
Take B2: the binding result was “no binding (tested: 50 ug/ml)” in data set [2] and “binds” in data set [3].

A word on the EC50: it is the midpoint of the concentration-response curve.
